Measured values: PMC11734750, “Using environment-sensitive tetramethylated thiophene-BODIPY fluorophores in DNA probes for studying effector-induced conformational changes of protein–DNA complexes” (RSC Chemical Biology, 2025)
Values belong to the compound of their own block, whether it stands above or below them.

Tests used:
[1] = target: T1, LutR (LutR-FL, full-length); assay: microscale thermophoresis (label-free); type: binding, Bacillus subtilis; conditions: 8 μM LutR; 20 mM Tris-HCl pH 7.5, 250 mM NaCl, 0.02% β-mercaptoethanol; free protein without DNA; effector
T1 construct: full-length residues 2-240, N-terminal His6 and TEV site (pMCSG7-derived vector), His6-tagged protein purified and apparently tag kept; expressed in E. coli BL21(DE3)

[2] = target: DNA-binding domain of LutR (LutR–DBD, residues 2–78) (Bacillus subtilis); assay: SEC; analytical SEC, Superdex 200 10/300 GL, room temperature, PBS pH 7.4; protein 3 mg/ml (33.2 uM as printed); alone and with DNA (protein:DNA 2:1)
[3] = target: Full-length LutR (LutR-FL, amino-acid residues 2–240) (Bacillus subtilis); assay: SEC; analytical SEC, Superdex 200 10/300 GL, room temperature, 20 mM Tris-HCl pH 7.5, 250 mM NaCl, 0.02% beta-mercaptoethanol; protein 2 mg/ml (66.7 uM), DNA 50 uM, protein:DNA 2:1.5; with and without 50 mM L-lactate; dimer told for the DNA-bound protein

- Kd [1]: 2300 ± 5 µM
Compound: C[C@H](O)C(=O)O [L-lactate]

- stoichiometry N [2]: 2
Compound: DNA-binding domain of LutR (LutR–DBD, residues 2–78) (domain or fragment)

- stoichiometry N [3]: 2
Compound: Full-length LutR (LutR-FL, amino-acid residues 2–240) (natural protein)
